In the supplement of paper PMC10724198:
± gives the standard deviation of the averaged measurements.

Assays:
Saccharomyces cerevisiae [1] = assay: protein stability index of tFT-peptide fusion (C-terminal peptide) (PSI (0-1 scale)); higher = more stable (slower turnover)
Procedure: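 MPS profiling in S. cerevisiae of the tFT-X12 degron library: putative degron peptides plus stable controls, 12 aa, fused to the C-terminus of a sfGFP-mCherry timer. Cells are FACS-sorted into 8 mCherry/sfGFP bins and deep-sequenced. PSI runs from 0 (unstable) to 1 (stable). Backgrounds are wild type, das1Δ and doa10Δ at 30 °C, and wild type, das1Δ, cdc34-1 and cdc53-1 at 37 °C; 2-3 technical replicates each.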

Saccharomyces cerevisiae [2] = assay: as above; settings: genetic background: wild type; temperature: 30 C
[3] = genetic background: cdc34-1, temperature: 37 C
[4] = genetic background: cdc53-1, temperature: 37 C
[5] = genetic background: das1 deletion, temperature: 30 C
[6] = genetic background: das1 deletion, temperature: 37 C
[7] = genetic background: doa10 deletion, temperature: 30 C
[8] = genetic background: wild type, temperature: 30 C
[9] = genetic background: wild type, temperature: 37 C
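Further: PSI is a weighted mean of sequencing reads over stability bins, variants kept only with over 10 reads, mCherry proximal and sfGFP distal, peptide attached via GGGS linker.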

With HHACLLPVRKAG the protein stability index (Saccharomyces cerevisiae [1]; [3]) was 0.636 ± 0.056, the protein stability index (Saccharomyces cerevisiae [1]; [4]) was 0.752 ± 0.012 and the protein stability index (Saccharomyces cerevisiae [1]; [5]) was 0.6526 ± 0.00091. The protein stability index (Saccharomyces cerevisiae [1]; [6]) was 0.744 ± 0.0085, the protein stability index (Saccharomyces cerevisiae [1]; [7]) was 0.154 ± 0.007 and the protein stability index (Saccharomyces cerevisiae [1]; [8]) was 0.187 ± 0.0086. For the same sequence, the protein stability index (Saccharomyces cerevisiae [1]; [9]) was 0.404 ± 0.024 and the protein stability index (Saccharomyces cerevisiae [2]) was 0.277 ± 0.027.
SPTIFLPLFLTS showed a protein stability index (Saccharomyces cerevisiae [1]; [3]) of 0.426 ± 0.026, a protein stability index (Saccharomyces cerevisiae [1]; [4]) of 0.415 ± 0.014 and a protein stability index (Saccharomyces cerevisiae [1]; [5]) of 0.397 ± 0.028. The protein stability index (Saccharomyces cerevisiae [1]; [6]) was 0.522 ± 0.016, the protein stability index (Saccharomyces cerevisiae [1]; [7]) was 0.621 ± 0.016 and the protein stability index (Saccharomyces cerevisiae [1]; [8]) was 0.4 ± 0.029. The protein stability index (Saccharomyces cerevisiae [1]; [9]) was 0.468 ± 0.0067 and the protein stability index (Saccharomyces cerevisiae [2]) was 0.376 ± 0.037.
With SIRVIVAVRNIS the protein stability index (Saccharomyces cerevisiae [1]; [3]) was 0.621 ± 0.033, the protein stability index (Saccharomyces cerevisiae [1]; [4]) was 0.648 ± 0.041 and the protein stability index (Saccharomyces cerevisiae [1]; [5]) was 0.554 ± 0.023. For the same sequence, the protein stability index (Saccharomyces cerevisiae [1]; [6]) was 0.663 ± 0.0092, the protein stability index (Saccharomyces cerevisiae [1]; [7]) was 0.21 ± 0.015 and the protein stability index (Saccharomyces cerevisiae [1]; [8]) was 0.239 ± 0.038. The protein stability index (Saccharomyces cerevisiae [1]; [9]) was 0.4346 ± 0.0024 and the protein stability index (Saccharomyces cerevisiae [2]) was 0.431 ± 0.052.
VLLCGCVWLWWG showed a protein stability index (Saccharomyces cerevisiae [1]; [3]) of 0.437 ± 0.034, a protein stability index (Saccharomyces cerevisiae [1]; [4]) of 0.507 ± 0.006 and a protein stability index (Saccharomyces cerevisiae [1]; [5]) of 0.371 ± 0.038. For the same sequence, the protein stability index (Saccharomyces cerevisiae [1]; [6]) was 0.5248 ± 0.004, the protein stability index (Saccharomyces cerevisiae [1]; [7]) was 0.349 ± 0.013 and the protein stability index (Saccharomyces cerevisiae [1]; [8]) was 0.364 ± 0.014. It also gave a protein stability index (Saccharomyces cerevisiae [1]; [9]) of 0.5013 ± 0.0039 and a protein stability index (Saccharomyces cerevisiae [2]) of 0.4494 ± 0.0012.
MVAHTVRVKCGI was tested, and the protein stability index (Saccharomyces cerevisiae [1]; [3]) was 0.638 ± 0.049, the protein stability index (Saccharomyces cerevisiae [1]; [4]) was 0.66 ± 0.021 and the protein stability index (Saccharomyces cerevisiae [1]; [5]) was 0.544 ± 0.031. For the same sequence, the protein stability index (Saccharomyces cerevisiae [1]; [6]) was 0.674 ± 0.0096, the protein stability index (Saccharomyces cerevisiae [1]; [7]) was 0.557 ± 0.016 and the protein stability index (Saccharomyces cerevisiae [1]; [8]) was 0.56 ± 0.056. The protein stability index (Saccharomyces cerevisiae [1]; [9]) was 0.6622 ± 0.0012 and the protein stability index (Saccharomyces cerevisiae [2]) was 0.547 ± 0.13.
VLLGYPRILSLF gave a protein stability index (Saccharomyces cerevisiae [1]; [3]) of 0.7 ± 0.059, a protein stability index (Saccharomyces cerevisiae [1]; [4]) of 0.8278 ± 0.002 and a protein stability index (Saccharomyces cerevisiae [1]; [5]) of 0.681 ± 0.0075. It also gave a protein stability index (Saccharomyces cerevisiae [1]; [6]) of 0.8122 ± 0.0047, a protein stability index (Saccharomyces cerevisiae [1]; [7]) of 0.1646 ± 0.0013 and a protein stability index (Saccharomyces cerevisiae [1]; [8]) of 0.167 ± 0.021. For the same sequence, the protein stability index (Saccharomyces cerevisiae [1]; [9]) was 0.25 ± 0.0096 and the protein stability index (Saccharomyces cerevisiae [2]) was 0.35 ± 0.061.
For FVRGWGIVFSLA, the protein stability index (Saccharomyces cerevisiae [1]; [3]) was 0.571 ± 0.031, the protein stability index (Saccharomyces cerevisiae [1]; [4]) was 0.599 ± 0.023 and the protein stability index (Saccharomyces cerevisiae [1]; [5]) was 0.438 ± 0.036. The protein stability index (Saccharomyces cerevisiae [1]; [6]) was 0.594 ± 0.015, the protein stability index (Saccharomyces cerevisiae [1]; [7]) was 0.225 ± 0.012 and the protein stability index (Saccharomyces cerevisiae [1]; [8]) was 0.268 ± 0.016. For the same sequence, the protein stability index (Saccharomyces cerevisiae [1]; [9]) was 0.467 ± 0.011 and the protein stability index (Saccharomyces cerevisiae [2]) was 0.41 ± 0.01.
YVVCFFFKLFYF showed a protein stability index (Saccharomyces cerevisiae [1]; [3]) of 0.271 ± 0.012, a protein stability index (Saccharomyces cerevisiae [1]; [4]) of 0.364 ± 0.024 and a protein stability index (Saccharomyces cerevisiae [1]; [5]) of 0.299 ± 0.025. It also gave a protein stability index (Saccharomyces cerevisiae [1]; [6]) of 0.4172 ± 0.0025, a protein stability index (Saccharomyces cerevisiae [1]; [7]) of 0.256 ± 0.0065 and a protein stability index (Saccharomyces cerevisiae [1]; [8]) of 0.244 ± 0.025. The protein stability index (Saccharomyces cerevisiae [1]; [9]) was 0.341 ± 0.024 and the protein stability index (Saccharomyces cerevisiae [2]) was 0.382 ± 0.046.
For SIFLCRLQNLLI, the protein stability index (Saccharomyces cerevisiae [1]; [3]) was 0.637 ± 0.0071, the protein stability index (Saccharomyces cerevisiae [1]; [4]) was 0.742 ± 0.023 and the protein stability index (Saccharomyces cerevisiae [1]; [5]) was 0.632 ± 0.0083. The protein stability index (Saccharomyces cerevisiae [1]; [6]) was 0.734 ± 0.018, the protein stability index (Saccharomyces cerevisiae [1]; [7]) was 0.19 ± 0.017 and the protein stability index (Saccharomyces cerevisiae [1]; [8]) was 0.209 ± 0.035. The protein stability index (Saccharomyces cerevisiae [1]; [9]) was 0.407 ± 0.0057 and the protein stability index (Saccharomyces cerevisiae [2]) was 0.389 ± 0.077.
For VCWVYESWKCLA, the protein stability index (Saccharomyces cerevisiae [1]; [3]) was 0.438 ± 0.038, the protein stability index (Saccharomyces cerevisiae [1]; [4]) was 0.571 ± 0.043 and the protein stability index (Saccharomyces cerevisiae [1]; [5]) was 0.536 ± 0.027. It also gave a protein stability index (Saccharomyces cerevisiae [1]; [6]) of 0.672 ± 0.0075, a protein stability index (Saccharomyces cerevisiae [1]; [7]) of 0.0888 ± 0.014 and a protein stability index (Saccharomyces cerevisiae [1]; [8]) of 0.103 ± 0.0097. The protein stability index (Saccharomyces cerevisiae [1]; [9]) was 0.107 ± 0.013 and the protein stability index (Saccharomyces cerevisiae [2]) was 0.168 ± 0.026.
